Results as given in patent US12060408B2, “Screening assays, modulators and modulation of activation of Receptor for Advanced Glycation End-products (RAGE)” (Monash University, priority 2017, dated 2024).
Ends that are not written are not given here.

How the values were obtained:
U-87MG cells = conditions: Putranto et al., 2013; cited from earlier work
[1] = test system: RAGE ligand-dependent signalling; conditions: Putranto et al., 2013; cited from earlier work
[2] = molecular target: T1, orexin receptor 2 and RAGE (Homo sapiens, UniProt O43614+Q15109); assay: Ligand-induced BRET, Rluc8-tagged GPCR and RAGE/Venus; assay type: cell-based; conditions: mCherry-RAGE338-361 co-expressed, FIG. 21F
T1 construct: expressed in transfected cells; host or cells: HEK293FT
T1 sequence (O43614 whole entry): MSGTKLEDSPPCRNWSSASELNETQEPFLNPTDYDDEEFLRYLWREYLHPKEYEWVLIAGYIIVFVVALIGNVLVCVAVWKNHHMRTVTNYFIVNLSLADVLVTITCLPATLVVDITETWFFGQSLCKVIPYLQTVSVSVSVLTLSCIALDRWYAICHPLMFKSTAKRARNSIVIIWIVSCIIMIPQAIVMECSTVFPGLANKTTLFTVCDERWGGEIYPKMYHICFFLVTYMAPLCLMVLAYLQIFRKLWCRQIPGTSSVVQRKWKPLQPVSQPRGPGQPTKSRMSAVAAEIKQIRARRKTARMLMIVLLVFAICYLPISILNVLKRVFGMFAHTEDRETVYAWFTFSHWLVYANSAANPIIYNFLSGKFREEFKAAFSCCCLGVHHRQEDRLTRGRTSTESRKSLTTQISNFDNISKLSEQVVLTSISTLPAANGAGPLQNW
T1 sequence (Q15109 23-404): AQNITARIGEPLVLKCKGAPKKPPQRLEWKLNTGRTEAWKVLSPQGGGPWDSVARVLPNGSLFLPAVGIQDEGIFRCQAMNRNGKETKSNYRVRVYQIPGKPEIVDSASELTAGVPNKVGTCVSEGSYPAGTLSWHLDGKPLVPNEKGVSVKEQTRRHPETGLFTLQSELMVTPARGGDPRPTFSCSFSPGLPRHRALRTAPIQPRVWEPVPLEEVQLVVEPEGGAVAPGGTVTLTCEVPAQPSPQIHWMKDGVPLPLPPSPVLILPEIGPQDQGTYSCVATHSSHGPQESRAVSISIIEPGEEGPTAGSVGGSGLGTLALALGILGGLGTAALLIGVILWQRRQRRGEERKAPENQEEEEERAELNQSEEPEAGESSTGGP

CCR9 and RAGE = molecular target: T2, CCR9 and RAGE (Homo sapiens, UniProt P51686+Q15109); assay: as above; assay type: cell-based; conditions: mCherry-RAGE338-361 co-expressed, FIG. 21F
T2 construct: expressed in transfected cells; host or cells: HEK293FT

AT1R and RAGE = molecular target: T3, AT1R and RAGE (Homo sapiens, UniProt P30556+Q15109); assay: BRET between AT1R/Rluc8 and RAGE/Venus in HEK293FT cells; assay type: cell-based
T3 construct: expressed in transfected cells; host or cells: HEK293FT
T3 sequence (Q15109 23-404, one chain of several): as the sequence (Q15109 23-404) above

[3] = molecular target: T4, adenosine A1 receptor (ADORA1) and RAGE (Homo sapiens, UniProt P30542+Q15109); assay: Ligand-induced BRET, Rluc8-tagged GPCR and RAGE/Venus; assay type: cell-based; conditions: mCherry-RAGE338-361 co-expressed, FIG. 21F
T4 construct: expressed in transfected cells; host or cells: HEK293FT
T4 sequence (P30542 whole entry): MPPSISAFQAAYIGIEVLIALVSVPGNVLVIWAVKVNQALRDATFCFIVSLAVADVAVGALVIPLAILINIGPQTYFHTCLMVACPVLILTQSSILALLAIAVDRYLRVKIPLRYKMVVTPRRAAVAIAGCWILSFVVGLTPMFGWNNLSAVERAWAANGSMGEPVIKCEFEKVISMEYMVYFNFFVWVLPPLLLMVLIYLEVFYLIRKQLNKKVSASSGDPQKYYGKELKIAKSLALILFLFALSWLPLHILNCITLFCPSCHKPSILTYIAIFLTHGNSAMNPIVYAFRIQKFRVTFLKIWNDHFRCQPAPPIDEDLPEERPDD
T4 sequence (Q15109 23-404): as the sequence (Q15109 23-404) above

CXCR2 and RAGE = molecular target: T5, CXCR2 and RAGE (Homo sapiens, UniProt P25025+Q15109); assay: as above; assay type: cell-based; conditions: mCherry-RAGE338-361 co-expressed, FIG. 21F
T5 construct: expressed in transfected cells; host or cells: HEK293FT

[4] = molecular target: T6, neuropeptide Y1 receptor (NPY1R) and RAGE (Homo sapiens, UniProt P25929+Q15109); assay: as above; assay type: cell-based; conditions: mCherry-RAGE338-361 co-expressed, FIG. 21F
T6 construct: expressed in transfected cells; host or cells: HEK293FT

CXCR4 and RAGE = molecular target: T7, CXCR4 and RAGE (Homo sapiens, UniProt P61073+Q15109); assay: as above; assay type: cell-based; conditions: mCherry-RAGE338-361 co-expressed, FIG. 21F
T7 construct: expressed in transfected cells; host or cells: HEK293FT
T7 sequence (P61073 whole entry): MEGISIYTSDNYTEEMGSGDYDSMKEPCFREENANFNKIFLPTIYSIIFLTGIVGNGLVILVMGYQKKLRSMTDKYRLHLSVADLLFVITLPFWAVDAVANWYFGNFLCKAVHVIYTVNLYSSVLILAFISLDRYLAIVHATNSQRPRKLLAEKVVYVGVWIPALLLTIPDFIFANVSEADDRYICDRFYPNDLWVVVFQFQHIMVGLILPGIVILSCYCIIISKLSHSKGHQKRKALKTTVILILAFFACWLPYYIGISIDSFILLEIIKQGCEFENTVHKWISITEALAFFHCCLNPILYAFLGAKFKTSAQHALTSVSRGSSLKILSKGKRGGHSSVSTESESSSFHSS
T7 sequence (Q15109 23-404): as the sequence (Q15109 23-404) above

CCR1 and RAGE = molecular target: T8, CCR1 and RAGE (Homo sapiens, UniProt P32246+Q15109); assay: as above; assay type: cell-based; conditions: mCherry-RAGE338-361 co-expressed, FIG. 21F
T8 construct: expressed in transfected cells; host or cells: HEK293FT

CCR5 and RAGE = molecular target: T9, CCR5 and RAGE (Homo sapiens, UniProt P51681+Q15109); assay: as above; assay type: cell-based; conditions: mCherry-RAGE338-361 co-expressed, FIG. 21F
T9 construct: expressed in transfected cells; host or cells: HEK293FT
T9 sequence (P51681 whole entry): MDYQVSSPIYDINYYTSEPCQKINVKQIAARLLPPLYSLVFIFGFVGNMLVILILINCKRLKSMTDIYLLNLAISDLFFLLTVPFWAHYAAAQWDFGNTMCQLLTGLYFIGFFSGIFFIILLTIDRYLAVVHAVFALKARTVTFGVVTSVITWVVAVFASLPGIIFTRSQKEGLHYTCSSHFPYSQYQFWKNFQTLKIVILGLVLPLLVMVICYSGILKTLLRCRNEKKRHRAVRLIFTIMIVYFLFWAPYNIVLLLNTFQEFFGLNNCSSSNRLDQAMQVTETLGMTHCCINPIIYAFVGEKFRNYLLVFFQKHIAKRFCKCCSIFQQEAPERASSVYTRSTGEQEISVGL
T9 sequence (Q15109 23-404): as the sequence (Q15109 23-404) above

CCR6 and RAGE = molecular target: T10, CCR6 and RAGE (Homo sapiens, UniProt P51684+Q15109); assay: as above; assay type: cell-based; conditions: mCherry-RAGE338-361 co-expressed, FIG. 21F
T10 construct: expressed in transfected cells; host or cells: HEK293FT
T10 sequence (P51684 whole entry): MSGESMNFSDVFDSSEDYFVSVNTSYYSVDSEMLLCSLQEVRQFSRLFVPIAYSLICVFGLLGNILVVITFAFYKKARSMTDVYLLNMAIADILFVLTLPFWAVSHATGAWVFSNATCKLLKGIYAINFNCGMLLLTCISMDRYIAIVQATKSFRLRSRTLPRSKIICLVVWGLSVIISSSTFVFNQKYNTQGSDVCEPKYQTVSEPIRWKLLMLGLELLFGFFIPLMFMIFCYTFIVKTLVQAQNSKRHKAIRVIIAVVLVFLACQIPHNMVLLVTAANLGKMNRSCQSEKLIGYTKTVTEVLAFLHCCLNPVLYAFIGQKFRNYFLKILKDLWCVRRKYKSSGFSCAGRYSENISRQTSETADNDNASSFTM
T10 sequence (Q15109 23-404): as the sequence (Q15109 23-404) above

[5] = molecular target: T11, bradykinin receptor 2 (B2R) and RAGE (Homo sapiens, UniProt P30411+Q15109); assay: as above; assay type: cell-based; conditions: mCherry-RAGE338-361 co-expressed, FIG. 21F
T11 construct: expressed in transfected cells; host or cells: HEK293FT
T11 sequence (P30411 whole entry): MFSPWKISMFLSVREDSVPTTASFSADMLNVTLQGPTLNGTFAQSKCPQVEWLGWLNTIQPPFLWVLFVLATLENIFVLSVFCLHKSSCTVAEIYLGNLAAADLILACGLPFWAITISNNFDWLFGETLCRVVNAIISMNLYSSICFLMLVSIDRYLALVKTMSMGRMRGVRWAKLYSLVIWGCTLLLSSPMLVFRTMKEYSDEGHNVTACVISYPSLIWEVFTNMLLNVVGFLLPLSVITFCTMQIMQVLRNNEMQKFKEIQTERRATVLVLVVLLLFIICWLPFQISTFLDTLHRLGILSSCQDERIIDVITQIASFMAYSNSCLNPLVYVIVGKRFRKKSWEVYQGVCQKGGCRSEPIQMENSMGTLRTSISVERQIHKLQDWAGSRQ
T11 sequence (Q15109 23-404): as the sequence (Q15109 23-404) above

[6] = molecular target: T12, vasopressin receptor 1B (V1bR) and RAGE (Homo sapiens, UniProt P47901+Q15109); assay: as above; assay type: cell-based; conditions: mCherry-RAGE338-361 co-expressed, FIG. 21F
T12 construct: expressed in transfected cells; host or cells: HEK293FT
T12 sequence (P47901 whole entry): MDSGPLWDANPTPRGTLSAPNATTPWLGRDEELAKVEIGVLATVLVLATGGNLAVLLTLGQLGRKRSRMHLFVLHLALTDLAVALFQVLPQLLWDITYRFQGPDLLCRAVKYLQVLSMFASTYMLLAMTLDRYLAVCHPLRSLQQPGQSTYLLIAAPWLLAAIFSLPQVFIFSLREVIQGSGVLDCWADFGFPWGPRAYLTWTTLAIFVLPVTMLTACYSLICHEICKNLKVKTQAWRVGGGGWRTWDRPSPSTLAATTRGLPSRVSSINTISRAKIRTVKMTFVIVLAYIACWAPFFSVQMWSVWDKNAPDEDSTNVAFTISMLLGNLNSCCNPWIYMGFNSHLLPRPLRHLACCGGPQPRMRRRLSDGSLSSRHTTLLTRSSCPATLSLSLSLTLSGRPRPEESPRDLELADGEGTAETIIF
T12 sequence (Q15109 23-404): as the sequence (Q15109 23-404) above

AT1 = molecular target: T13, AT1 (Homo sapiens, UniProt P30556); assay: BRET between mCherry-RAGE338-361 and Nluc-AT1; assay type: cell-based; set-up: expressed in transfected cells; host or cells: HEK293FT, transient; conditions: FIG. 21A
T13 sequence (P30556 1-359): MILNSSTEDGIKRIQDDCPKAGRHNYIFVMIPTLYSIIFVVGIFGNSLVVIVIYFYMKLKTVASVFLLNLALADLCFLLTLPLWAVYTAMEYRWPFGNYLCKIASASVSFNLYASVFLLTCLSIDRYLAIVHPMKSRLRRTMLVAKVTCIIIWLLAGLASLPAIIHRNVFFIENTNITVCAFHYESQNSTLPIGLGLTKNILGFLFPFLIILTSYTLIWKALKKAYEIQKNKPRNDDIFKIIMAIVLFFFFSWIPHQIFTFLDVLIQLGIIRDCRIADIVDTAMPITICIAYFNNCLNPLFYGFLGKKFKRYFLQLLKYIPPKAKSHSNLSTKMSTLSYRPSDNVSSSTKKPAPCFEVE

CXCR5 and RAGE = molecular target: T14, CXCR5 and RAGE (Homo sapiens, UniProt P32302+Q15109); assay: Ligand-induced BRET, Rluc8-tagged GPCR and RAGE/Venus; assay type: cell-based; conditions: mCherry-RAGE338-361 co-expressed, FIG. 21F
T14 construct: expressed in transfected cells; host or cells: HEK293FT

CCR4 and RAGE = molecular target: T15, CCR4 and RAGE (Homo sapiens, UniProt P51679+Q15109); assay: as above; assay type: cell-based; conditions: mCherry-RAGE338-361 co-expressed, FIG. 21F
T15 construct: expressed in transfected cells; host or cells: HEK293FT

[7] = molecular target: T16, adrenergic α2B receptor and RAGE (Homo sapiens, UniProt P18089+Q15109); assay: as above; assay type: cell-based; conditions: mCherry-RAGE338-361 co-expressed, FIG. 21F
T16 construct: expressed in transfected cells; host or cells: HEK293FT
T16 sequence (P18089 whole entry): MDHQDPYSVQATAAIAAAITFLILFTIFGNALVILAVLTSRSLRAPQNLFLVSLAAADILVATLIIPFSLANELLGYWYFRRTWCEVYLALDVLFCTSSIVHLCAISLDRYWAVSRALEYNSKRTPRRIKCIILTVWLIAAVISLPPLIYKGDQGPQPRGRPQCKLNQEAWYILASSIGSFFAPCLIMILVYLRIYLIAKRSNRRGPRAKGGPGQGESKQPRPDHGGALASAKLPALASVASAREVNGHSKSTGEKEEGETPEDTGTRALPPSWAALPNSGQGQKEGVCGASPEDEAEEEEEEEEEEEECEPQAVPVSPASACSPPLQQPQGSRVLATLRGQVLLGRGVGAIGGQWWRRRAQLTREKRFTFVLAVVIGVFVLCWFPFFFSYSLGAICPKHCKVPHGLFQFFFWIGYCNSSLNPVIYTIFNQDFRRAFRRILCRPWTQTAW
T16 sequence (Q15109 23-404): as the sequence (Q15109 23-404) above

CCR7 and RAGE = molecular target: T17, CCR7 and RAGE (Homo sapiens, UniProt P32248+Q15109); assay: as above; assay type: cell-based; conditions: mCherry-RAGE338-361 co-expressed, FIG. 21F
T17 construct: expressed in transfected cells; host or cells: HEK293FT

[8] = molecular target: T18, vasopressin receptor 2 (V2R) and RAGE (Homo sapiens, UniProt P30518+Q15109); assay: as above; assay type: cell-based; conditions: mCherry-RAGE338-361 co-expressed, FIG. 21F
T18 construct: expressed in transfected cells; host or cells: HEK293FT

CCR2 and RAGE = molecular target: T19, CCR2 and RAGE (Homo sapiens, UniProt P41597+Q15109); assay: as above; assay type: cell-based; conditions: mCherry-RAGE338-361 co-expressed, FIG. 21F
T19 construct: expressed in transfected cells; host or cells: HEK293FT
T19 sequence (P41597 whole entry): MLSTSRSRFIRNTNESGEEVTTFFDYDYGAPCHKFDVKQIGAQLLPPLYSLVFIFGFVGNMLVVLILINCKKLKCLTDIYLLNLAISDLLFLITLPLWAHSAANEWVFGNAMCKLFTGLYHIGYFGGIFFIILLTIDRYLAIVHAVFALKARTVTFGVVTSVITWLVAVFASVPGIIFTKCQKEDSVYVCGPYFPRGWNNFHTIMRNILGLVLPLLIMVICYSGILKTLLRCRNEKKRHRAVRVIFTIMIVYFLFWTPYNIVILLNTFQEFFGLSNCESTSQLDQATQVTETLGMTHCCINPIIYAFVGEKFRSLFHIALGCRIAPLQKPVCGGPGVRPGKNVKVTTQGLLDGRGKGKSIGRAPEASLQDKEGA
T19 sequence (Q15109 23-404): as the sequence (Q15109 23-404) above

[9] = molecular target: T20, sphingosine 1-phosphate receptor 1 (S1PR1) and RAGE (Homo sapiens, UniProt P21453+Q15109); assay: as above; assay type: cell-based; conditions: mCherry-RAGE338-361 co-expressed, FIG. 21F
T20 construct: expressed in transfected cells; host or cells: HEK293FT
T20 sequence (P21453 whole entry): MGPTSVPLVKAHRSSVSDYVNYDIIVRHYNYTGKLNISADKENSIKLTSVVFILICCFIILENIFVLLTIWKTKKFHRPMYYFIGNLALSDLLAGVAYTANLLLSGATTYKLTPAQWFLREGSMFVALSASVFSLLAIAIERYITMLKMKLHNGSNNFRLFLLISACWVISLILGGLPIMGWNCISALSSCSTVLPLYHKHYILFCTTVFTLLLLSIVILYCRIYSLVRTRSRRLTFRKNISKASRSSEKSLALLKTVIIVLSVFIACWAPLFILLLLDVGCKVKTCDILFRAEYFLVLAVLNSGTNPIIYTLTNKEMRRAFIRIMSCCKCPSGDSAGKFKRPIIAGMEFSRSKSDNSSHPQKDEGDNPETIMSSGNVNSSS
T20 sequence (Q15109 23-404): as the sequence (Q15109 23-404) above

[10] = molecular target: T21, vasopressin receptor 1A (V1aR) and RAGE (Homo sapiens, UniProt P37288+Q15109); assay: as above; assay type: cell-based; conditions: mCherry-RAGE338-361 co-expressed, FIG. 21F
T21 construct: expressed in transfected cells; host or cells: HEK293FT

[11] = test system: thyrotropin-releasing hormone receptor 1 (TRHR1) and RAGE; assay: as above; assay type: cell-based; conditions: mCherry-RAGE338-361 co-expressed, FIG. 21F
TIRAP = TIRAP (Homo sapiens, UniProt P58753); conditions: Putranto et al., 2013; cited from earlier work
TIRAP, sequence (P58753 whole entry, species assumed): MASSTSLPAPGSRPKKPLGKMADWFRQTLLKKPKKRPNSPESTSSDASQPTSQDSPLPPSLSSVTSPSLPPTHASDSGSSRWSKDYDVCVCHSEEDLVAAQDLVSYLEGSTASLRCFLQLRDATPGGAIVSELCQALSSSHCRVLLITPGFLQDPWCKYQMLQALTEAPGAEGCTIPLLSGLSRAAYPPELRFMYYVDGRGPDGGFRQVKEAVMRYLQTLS

S391E-RAGE387-395: fragment of RAGE cytosolic tail of Putranto et al., 2013, mimicking the phosphorylated state of RAGE (ELNQEEEPE; cytosolic tail peptide; UniProt Q15109 387-395, looked up, variant S391E)
growth of U-87MG cells (intracellular adenosine triphosphate content) (U-87MG cells): not significantly affected | inhibition of particular aspects of RAGE ligand-dependent signalling (apoptosis, cell migration and invasion) [1]: inhibitor

mCherry-RAGE338-361: the RAGE TMD with an extracellular juxta-membrane fragment linked to mCherry (LGTLALALGILGGLGTAALLIGVI; also: linked to mCherry)
inhibition of the change in the ligand-induced BRET signal between the Rluc8-tagged GPCR and RAGE/Venus [2]: particularly clear inhibition | inhibition of the change in the ligand-induced BRET signal between the Rluc8-tagged GPCR and RAGE/Venus (CCR9 and RAGE): particularly clear inhibition | inhibition of the change in the ligand-induced BRET signal between the Rluc8-tagged GPCR and RAGE/Venus (AT1R and RAGE; angiotensin receptor AT1 (AT1R), mCherry-RAGE338-361 co-expressed, FIG. 21F): particularly clear inhibition | BRET between full length RAGE and AT1 (saturation and kinetic assays) (AT1R and RAGE; overexpression of mCherry-RAGE338-361, FIG. 21B, 21C): modulates BRET between full length RAGE and AT1 in a dose dependent fashion | inhibition of the change in the ligand-induced BRET signal between the Rluc8-tagged GPCR and RAGE/Venus [3]: small yet discernible inhibition | inhibition of the change in the ligand-induced BRET signal between the Rluc8-tagged GPCR and RAGE/Venus (CXCR2 and RAGE): particularly clear inhibition | inhibition of the change in the ligand-induced BRET signal between the Rluc8-tagged GPCR and RAGE/Venus [4]: particularly clear inhibition | inhibition of the change in the ligand-induced BRET signal between the Rluc8-tagged GPCR and RAGE/Venus (CXCR4 and RAGE): particularly clear inhibition | inhibition of the change in the ligand-induced BRET signal between the Rluc8-tagged GPCR and RAGE/Venus (CCR1 and RAGE): particularly clear inhibition | inhibition of the change in the ligand-induced BRET signal between the Rluc8-tagged GPCR and RAGE/Venus (CCR5 and RAGE): particularly clear inhibition | inhibition of the change in the ligand-induced BRET signal between the Rluc8-tagged GPCR and RAGE/Venus (CCR6 and RAGE): particularly clear inhibition | inhibition of the change in the ligand-induced BRET signal between the Rluc8-tagged GPCR and RAGE/Venus [5]: particularly clear inhibition | inhibition of the change in the ligand-induced BRET signal between the Rluc8-tagged GPCR and RAGE/Venus [6]: particularly clear inhibition | BRET signal with extracellularly luciferase-tagged AT1 receptor (Nluc-AT1) (AT1): BRET signal is observed | inhibition of the change in the ligand-induced BRET signal between the Rluc8-tagged GPCR and RAGE/Venus (CXCR5 and RAGE): small yet discernible inhibition | inhibition of the change in the ligand-induced BRET signal between the Rluc8-tagged GPCR and RAGE/Venus (CCR4 and RAGE): particularly clear inhibition | inhibition of the change in the ligand-induced BRET signal between the Rluc8-tagged GPCR and RAGE/Venus [7]: particularly clear inhibition | inhibition of the change in the ligand-induced BRET signal between the Rluc8-tagged GPCR and RAGE/Venus (CCR7 and RAGE): small yet discernible inhibition | inhibition of the change in the ligand-induced BRET signal between the Rluc8-tagged GPCR and RAGE/Venus [8]: particularly clear inhibition | inhibition of the change in the ligand-induced BRET signal between the Rluc8-tagged GPCR and RAGE/Venus (CCR2 and RAGE): particularly clear inhibition | inhibition of the change in the ligand-induced BRET signal between the Rluc8-tagged GPCR and RAGE/Venus [9]: particularly clear inhibition | inhibition of the change in the ligand-induced BRET signal between the Rluc8-tagged GPCR and RAGE/Venus [10]: particularly clear inhibition | inhibition of the change in the ligand-induced BRET signal between the Rluc8-tagged GPCR and RAGE/Venus [11]: particularly clear inhibition

S391A-RAGE387-395: fragment of RAGE cytosolic tail of Putranto et al., 2013 (ELNQAEEPE; cytosolic tail peptide; UniProt Q15109 387-395, looked up, variant S391A)
binding to TIRAP (TIRAP): did not show any appreciable binding | attenuation of apoptosis induced by RAGE ligand S100B [1]: did not attenuate
